Assays:
[1] = molecular target: HLA-B*15:02; assay: IEDB peptide-MHC binding, purified MHC/competitive/fluorescence; filed as Kd, often an IC50 or EC50 that approximates it; ≥ and ≤ were set here for values at or beyond the usual limits of such assays; conditions: source organism: Vibrio vulnificus CMCP6
[2] = molecular target: HLA-B*15:42; assay: as above
[3] = molecular target: HLA-A*68:23; assay: as above; conditions: source organism: Sudan ebolavirus
[4] = molecular target: HLA-B*83:01; assay: as above
[5] = molecular target: HLA-B*45:06; assay: as above
[6] = molecular target: HLA-A*29:02; assay: IEDB peptide-MHC binding, purified MHC/direct/fluorescence; filed as Kd, often an IC50 or EC50 that approximates it; ≥ and ≤ were set here for values at or beyond the usual limits of such assays; conditions: source organism: Sudan ebolavirus
[7] = molecular target: HLA-A*01:01; assay: as above
[8] = molecular target: HLA-B*73:01; assay: IEDB peptide-MHC binding, purified MHC/competitive/fluorescence; filed as Kd, often an IC50 or EC50 that approximates it; ≥ and ≤ were set here for values at or beyond the usual limits of such assays
[9] = molecular target: HLA-B*51:01; assay: IEDB peptide-MHC binding, purified MHC/competitive/fluorescence; ≥ and ≤ were set here for values at or beyond the usual limits of such assays; conditions: source organism: Taeniopygia guttata
[10] = molecular target: HLA-A*02:01; assay: as above; conditions: source organism: Taeniopygia guttata
[11] = molecular target: HLA-B*27:20; assay: IEDB peptide-MHC binding, purified MHC/competitive/fluorescence; filed as Kd, often an IC50 or EC50 that approximates it; ≥ and ≤ were set here for values at or beyond the usual limits of such assays
[12] = molecular target: HLA-B*40:01; assay: IEDB peptide-MHC binding, purified MHC/direct/fluorescence; filed as Kd, often an IC50 or EC50 that approximates it; ≥ and ≤ were set here for values at or beyond the usual limits of such assays
[13] = molecular target: HLA-A*02:50; assay: IEDB peptide-MHC binding, purified MHC/competitive/fluorescence; filed as Kd, often an IC50 or EC50 that approximates it; ≥ and ≤ were set here for values at or beyond the usual limits of such assays
[14] = molecular target: HLA-A*69:01; assay: IEDB peptide-MHC binding, purified MHC/direct/fluorescence; filed as Kd, often an IC50 or EC50 that approximates it; ≥ and ≤ were set here for values at or beyond the usual limits of such assays
[15] = molecular target: HLA-A*02:01; assay: as above
[16] = molecular target: HLA-B*58:01; assay: as above; conditions: source organism: Giardia lamblia ATCC 50803
[17] = molecular target: HLA-B*51:01; assay: as above; conditions: source organism: Giardia lamblia ATCC 50803
[18] = molecular target: HLA-B*18:01; assay: as above; conditions: source organism: Giardia lamblia ATCC 50803
[19] = molecular target: HLA-A*30:01; assay: as above; conditions: source organism: Giardia lamblia ATCC 50803
[20] = molecular target: HLA-B*15:01; assay: as above; conditions: source organism: Giardia lamblia ATCC 50803
[21] = molecular target: HLA-A*11:01; assay: as above; conditions: source organism: Giardia lamblia ATCC 50803
[22] = molecular target: HLA-B*48:01; assay: as above; conditions: source organism: Giardia lamblia ATCC 50803
[23] = molecular target: HLA-B*08:01; assay: as above; conditions: source organism: Giardia lamblia ATCC 50803
[24] = molecular target: HLA-B*46:01; assay: as above; conditions: source organism: Giardia lamblia ATCC 50803
[25] = molecular target: HLA-A*03:01; assay: as above; conditions: source organism: Giardia lamblia ATCC 50803
[26] = molecular target: HLA-B*07:02; assay: as above; conditions: source organism: Giardia lamblia ATCC 50803
[27] = molecular target: HLA-B*27:05; assay: as above; conditions: source organism: Giardia lamblia ATCC 50803
[28] = molecular target: HLA-B*15:17; assay: as above; conditions: source organism: Giardia lamblia ATCC 50803
[29] = molecular target: HLA-B*15:09; assay: as above; conditions: source organism: Giardia lamblia ATCC 50803
[30] = molecular target: HLA-A*31:01; assay: as above; conditions: source organism: Giardia lamblia ATCC 50803
[31] = molecular target: HLA-A*26:01; assay: as above; conditions: source organism: Giardia lamblia ATCC 50803
[32] = molecular target: HLA-B*57:01; assay: as above; conditions: source organism: Giardia lamblia ATCC 50803
[33] = molecular target: HLA-C*06:02; assay: as above; conditions: source organism: human gammaherpesvirus 4
[34] = molecular target: HLA-A*02:19; assay: as above; conditions: source organism: Coxiella burnetii Q321
[35] = source organism: Sudan ebolavirus
[36] = source organism: Listeria monocytogenes HPB2262
[37] = source organism: Mycobacterium tuberculosis H37Ra
[38] = source organism: Mycobacterium tuberculosis
[39] = source organism: Giardia lamblia ATCC 50803
[40] = source organism: human gammaherpesvirus 4
[41] = source organism: Coxiella burnetii

AMRVGSSIM was tested, and the Kd [1] was 0.118 µM.

For CTSSIQYHR, the Kd [2, 35] was ≥ 5 µM, the Kd [3] was 0.0038 µM and the Kd [4, 35] was ≥ 5 µM. For the same sequence, the Kd [5, 35] was ≥ 5 µM, the Kd [6] was 1.44 µM and the Kd [7, 35] was ≥ 20 µM.

In the case of FETMVFPAV, the Kd [2, 36] is reported as ≥ 5 µM, the Kd [4, 36] is reported as ≥ 5 µM and the Kd [8, 36] is reported as ≥ 5 µM. For the same sequence, the Kd [5, 36] was ≥ 5 µM.

With FLLPILSQI the IC50 [9] was ≥ 20 µM and the IC50 [10] was 0.0526 µM.

Sequence KRPYVFVAA has a Kd ([8]; source organism: Yersinia enterocolitica subsp. enterocolitica 8081) of 0.0685 µM.

LEMQHLISL was tested, and the Kd [2, 37] was ≥ 5 µM, the Kd [11, 37] was 1.11 µM and the Kd [5, 37] was ≥ 5 µM. For the same sequence, the Kd [12, 38] was 0.0137 µM.

LLYEVDGDV was tested, and the Kd ([13]; source organism: Mycobacterium tuberculosis variant bovis BCG str. Pasteur 1173P2) was 1.13 µM, the Kd [14, 38] was ≥ 20 µM and the Kd [15, 38] was ≥ 20 µM.

In the case of RPALVVDTP, the Kd [16] is reported as ≥ 20 µM, the Kd [17] is reported as ≥ 20 µM and the Kd [12, 39] is reported as ≥ 20 µM. For the same sequence, the Kd [18] was ≥ 20 µM, the Kd [19] was ≥ 20 µM and the Kd [20] was ≥ 20 µM. The Kd [21] was ≥ 20 µM, the Kd [22] was ≥ 20 µM and the Kd [23] was ≥ 20 µM. For the same sequence, the Kd [24] was ≥ 20 µM, the Kd [25] was ≥ 20 µM and the Kd [26] was ≥ 20 µM. The Kd [27] was ≥ 20 µM, the Kd [28] was ≥ 20 µM and the Kd [29] was ≥ 20 µM. The Kd [14, 39] was ≥ 20 µM, the Kd [30] was ≥ 20 µM and the Kd [31] was ≥ 20 µM. The Kd [7, 39] was ≥ 20 µM, the Kd [15, 39] was ≥ 20 µM and the Kd [32] was ≥ 20 µM.

With RRYASQTEL the Kd [2, 40] was ≥ 5 µM, the Kd [4, 40] was ≥ 5 µM and the Kd [11, 40] was 0.0002 µM. For the same sequence, the Kd [5, 40] was ≥ 5 µM and the Kd [33] was 0.021 µM.

In the case of YQLGDYFFV, the Kd ([13]; source organism: Coxiella burnetii Dugway 5J108-111) is reported as ≤ 0.0001 µM, the Kd [34] is reported as 0.002 µM and the Kd [14, 41] is reported as 0.0013 µM. The Kd [15, 41] was 0.0015 µM.

— the Immune Epitope Database (IEDB)
